# Substitutions are numbered along the chain they refer to. No end group written: not given here.
# T1: mouse GLP-1 receptor (mouse, UniProt O35659 22-463)
# T1 sequence (looked up): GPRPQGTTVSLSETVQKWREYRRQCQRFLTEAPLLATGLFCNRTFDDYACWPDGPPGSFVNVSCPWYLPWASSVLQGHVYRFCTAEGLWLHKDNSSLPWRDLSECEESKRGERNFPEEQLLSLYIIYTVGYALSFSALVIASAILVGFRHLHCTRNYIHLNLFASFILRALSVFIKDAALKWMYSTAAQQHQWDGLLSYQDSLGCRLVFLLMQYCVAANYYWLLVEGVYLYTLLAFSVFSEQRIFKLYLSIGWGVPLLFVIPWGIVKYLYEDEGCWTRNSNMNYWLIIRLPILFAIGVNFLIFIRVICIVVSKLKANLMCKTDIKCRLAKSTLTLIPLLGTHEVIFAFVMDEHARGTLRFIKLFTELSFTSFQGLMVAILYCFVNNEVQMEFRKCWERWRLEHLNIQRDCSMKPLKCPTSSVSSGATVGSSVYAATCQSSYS
# B1: A-GLP-1 (SEQ ID NO: 247) (peptide)
# peptide: AHAEGTFTSDVSSYLEGQAAKEFIAWLVKGR
# notes: Not pegylated
# B2: G-GLP-1 (SEQ ID NO: 248) (peptide)
# peptide: B1 peptide with A1G
# modifications: not fully specified
# notes: Not pegylated
# B3: V-GLP-1 (SEQ ID NO: 252) (peptide)
# peptide: B1 peptide with A1V
# modifications: ends and bridges not checked
# notes: Not pegylated
# B4: S-GLP-1 (SEQ ID NO: 250) (peptide)
# peptide: B1 peptide with A1S
# modifications: ends and bridges not checked
# notes: Not pegylated; also called S-CLP-1
# B5: T-GLP-1 (SEQ ID NO: 251) (peptide)
# peptide: B1 peptide with A1T
# modifications: not fully specified; ends and bridges not checked
# notes: Not pegylated
# B6: P-GLP-1 (SEQ ID NO: 249) (peptide)
# peptide: B1 peptide with A1P
# modifications: ends and bridges not checked
# notes: Not pegylated; also called P-CLP-1
# B7: MQ-GLP1 (SEQ ID NO: 253) (peptide)
# peptide: MQHAEGTFTSDVSSYLEGQAAKEFIAWLVKGR
# modifications: ends and bridges not checked
# notes: Not pegylated
# B8: MN-GLP1 (SEQ ID NO: 263) (peptide)
# peptide: B7 peptide with Q2N
# modifications: ends and bridges not checked
# notes: Not pegylated
# B9: MW-GLP1 (SEQ ID NO: 265) (peptide)
# peptide: B7 peptide with Q2W
# modifications: ends and bridges not checked
# notes: Not pegylated
# B10: MF-GLP1 (SEQ ID NO: 266) (peptide)
# peptide: B7 peptide with Q2F
# modifications: ends and bridges not checked
# notes: Not pegylated
# B11: MH-GLP1 (SEQ ID NO: 257) (peptide)
# peptide: B7 peptide with Q2H
# modifications: ends and bridges not checked
# notes: Not pegylated
# B12: MM-GLP1 (SEQ ID NO: 267) (peptide)
# peptide: B7 peptide with Q2M
# modifications: not fully specified; ends and bridges not checked
# notes: Not pegylated
# B13: MY-GLP1 (SEQ ID NO: 259) (peptide)
# peptide: B7 peptide with Q2Y
# modifications: ends and bridges not checked
# notes: Not pegylated
# B14: MI-GLP1 (SEQ ID NO: 260) (peptide)
# peptide: B7 peptide with Q2I
# modifications: not fully specified; ends and bridges not checked
# notes: Not pegylated
# Target: T2, human GLP-1 receptor (human, UniProt P43220 24-463)
# T2 construct: whole, on cells
# Experiment: 125I-GLP-1 displacement, membranes of CHOK1 cells expressing human GLP-1 receptor
# Description: Membrane Preparation. […] Cells were sedimented at 1500 rpm for 10 minutes. The resulting pellets were homogenized in 15 mls of ice cold sucrose buffer (25 mM Tris-HCl, 0.32 M Sucrose, 0.25 g/L, sodium azide, pH 7.4) with a motorized, glass fitted, Teflon homogenizer. The homogenate was centrifuged at 48,000×g at 4° C. for 10 minutes, resuspended in 25 ml assay buffer (50 mM Tris-HCl, 5 mM MgCl₂, 10 mg/ml protease-free BSA, 0.1 mg/ml STI, and 0.1 mg/ml Pefabloc, pH 7.4) with a Tissue-Tearor (Biospec Products), then centrifuged again at 48,000×g for 10 minutes. The pellets were homogenized for a third time in 15 ml assay buffer using the Tissue-Tearor and again centrifuged at 48,000×g for 10 minutes. The resulting pellet was resuspended in assay buffer at a wet weight concentration of 4 mg/ml.
# Ligand Binding Assay. Binding assays were performed in 96-well U-bottom plates. […] The reaction was terminated by rapid filtration through Unfilter-96 GF/C glass fiber filter plates (FilterMate 196 Packard Harvester, PerkinElmer, Shelton, Conn.) pre-soaked in 0.5% polyethylenimine, followed by three washes with 300 μl of cold 50 mM Tris-HCl, pH 7.4. Bound radioactivity was determined using a TopCount microplate scintillation and luminescence counter (Packard Instrument Company, PerkinElmer, Shelton, Conn.). Nonlinear regression analyses of resulting concentration curves were performed using GraphPad Prism (GraphPad Software, Inc., San Diego, Calif.).
row,Binder,IC50
1,B1,38 nM
2,B2,80 nM
3,B3,32 nM
4,B4,53 nM
5,B5,53 nM
6,B6,38 nM
7,B7,64 nM
8,B8,50 nM
9,B9,79 nM
10,B10,180 nM
11,B11,350 nM
12,B12,100 nM
13,B13,57 nM
14,B14,75 nM

# Target: T1, mouse GLP-1 receptor
# Experiment: cell-based or functional assay
row,Binder,EC50 mouse
1,B1,0.8 nM
2,B2,3 nM
3,B3,1 nM
4,B4,2 nM
5,B5,2 nM
6,B6,1 nM
7,B7,3 nM
8,B8,2 nM
9,B9,5 nM
10,B10,6 nM
11,B11,11 nM
12,B12,3 nM
13,B13,1 nM
14,B14,6 nM

# Target: T2, human GLP-1 receptor
# Experiment: cell-based or functional assay
row,Binder,EC50 human
1,B1,0.2 nM
2,B2,1 nM
3,B3,0.2 nM
4,B4,0.4 nM
5,B5,0.3 nM
6,B6,0.2 nM
7,B7,0.5 nM
8,B8,0.3 nM
9,B9,0.8 nM
10,B10,1 nM
11,B11,2 nM
12,B12,0.5 nM
13,B13,0.4 nM
14,B14,0.6 nM

# — US20100048468A1 (Amgen, published 2010)
